Measured values taken from publication PMC5614548, “Effects of isoleucine 135 side chain length on the cofactor donor-acceptor distance within F420H2:NADP^+ oxidoreductase: A kinetic analysis^” (Biochemistry and Biophysics Reports, 2016).
Where two headings read alike, the source gives them in different places.

Key:
[1] = biological target: Fno (F420H2:NADP+ oxidoreductase) (Archaeoglobus fulgidus, UniProt O29370, I135A); assay: tryptophan fluorescence titration, fit with Hill coefficient; assay type: binding
Excerpt: (§1) tryptophan fluorescence titration, fit with Hill coefficient on Fno (F420H2:NADP+ oxidoreductase)

[2] = biological target: Fno (F420H2:NADP+ oxidoreductase) (Archaeoglobus fulgidus, UniProt O29370, I135V); assay: as above; assay type: binding
Excerpt: as §1

[3] = biological target: Fno (F420H2:NADP+ oxidoreductase) (Archaeoglobus fulgidus, UniProt O29370, I135G); assay: as above; assay type: binding
Excerpt: as §1

purified protein [4] = substrate: NC(=O)C1=CN([C@@H]2O[C@H](COP(=O)(O)OP(=O)(O)OC[C@H]3O[C@@H](n4cnc5c(N)ncnc54)[C@H](OP(=O)(O)O)[C@@H]3O)[C@@H](O)[C@H]2O)C=CC1; assay: purified protein; assay type: biochemical, Archaeoglobus fulgidus; conditions: 25 µM FO, 50 mM MES/NaOH pH 6.5, 22 °C, phase 1 of biphasic fit, negative cooperativity
purified protein [5] = substrate: O=c1nc2n(C[C@H](O)[C@H](O)[C@H](O)CO)c3cc(O)ccc3cc-2c(=O)[nH]1; assay: purified protein; assay type: biochemical, Archaeoglobus fulgidus; conditions: 600 µM NADPH, 50 mM MES/NaOH pH 6.5, 22 °C

| Molecule | Km (purified protein [5]) | kcat (purified protein [5]) | kcat/Km (purified protein [5]) | further results |
| --- | --- | --- | --- | --- |
| NC(=O)C1=CN([C@@H]2O[C@H](COP(=O)(O)OP(=O)(O)OC[C@H]3O[C@@H](n4cnc5c(N)ncnc54)[C@H](OP(=O)(O)O)[C@@H]3O)[C@@H](O)[C@H]2O)C=CC1 [NADPH] |  |  |  | Kd ([1]; read-out: Kd^NADPH): 6.7 ± 0.7 nM; Kd ([2]; read-out: Kd^NADPH): 7.4 ± 1.1 nM; Kd ([3]; read-out: Kd^NADPH): 1.5 ± 0.1 nM |
| O=c1nc2n(C[C@H](O)[C@H](O)[C@H](O)CO)c3cc(O)ccc3cc-2c(=O)[nH]1 [FO] |  |  |  | Kd ([1]; read-out: Kd^FO): 5.6 ± 0.2 nM; Kd ([2]; read-out: Kd^FO): 7.5 ± 0.9 nM; Kd ([3]; read-out: Kd^FO): 6.9 ± 0.3 nM |
| Fno (F420H2:NADP+ oxidoreductase) (Archaeoglobus fulgidus DSM 4304; I135V) (protein) MRVALLGGTGNLGKGLALRLATLGHEIVVGSRREEKAEAKAAEYRRIAGDASITGMKNEDAAEACDIAVLTIPWEHAIDTARDLKNILREKIVVSPLVPVSRGAKGFTYSSERSAAEIVAEVLESEKVVSALHTVPAARFANLDEKFDWDVPVCGDDDESKKVVMSLISEIDGLRPLDAGPLSNSRLVESLTPLILNIMRFNGMGELGIKFL | 3.7 ± 0.4 µM | 1.8 ± 0.1 s⁻¹ | 490000 ± 55000 M⁻¹ s⁻¹ | Km (purified protein [4]): 0.7 ± 0.1 µM; kcat (purified protein [4]): 1.5 ± 0.09 s⁻¹; kcat/Km (purified protein [4]): 2.1e+06 ± 340000 M⁻¹ s⁻¹ |
| Fno (F420H2:NADP+ oxidoreductase) (Archaeoglobus fulgidus DSM 4304; I135A) (protein) MRVALLGGTGNLGKGLALRLATLGHEIVVGSRREEKAEAKAAEYRRIAGDASITGMKNEDAAEACDIAVLTIPWEHAIDTARDLKNILREKIVVSPLVPVSRGAKGFTYSSERSAAEIVAEVLESEKVVSALHTAPAARFANLDEKFDWDVPVCGDDDESKKVVMSLISEIDGLRPLDAGPLSNSRLVESLTPLILNIMRFNGMGELGIKFL | 3.6 ± 0.5 µM | 1.6 ± 0.1 s⁻¹ | 450000 ± 66000 M⁻¹ s⁻¹ |  |
| Fno (F420H2:NADP+ oxidoreductase) (Archaeoglobus fulgidus DSM 4304; I135G) (protein) MRVALLGGTGNLGKGLALRLATLGHEIVVGSRREEKAEAKAAEYRRIAGDASITGMKNEDAAEACDIAVLTIPWEHAIDTARDLKNILREKIVVSPLVPVSRGAKGFTYSSERSAAEIVAEVLESEKVVSALHTGPAARFANLDEKFDWDVPVCGDDDESKKVVMSLISEIDGLRPLDAGPLSNSRLVESLTPLILNIMRFNGMGELGIKFL | 3.6 ± 0.4 µM | 0.7 s⁻¹ | 200000 M⁻¹ s⁻¹ |  |
